B1: CHIP R225*, recombinant (natural protein, human, UniProt Q9UNE7-1 1-303, looked up)
chain: MKGKEEKEGGARLGAGGGSPEKSPSAQELKEQGNRLFVGRKYPEAAACYGRAITRNPLVAVYYTNRALCYLKMQQHEQALADCRRALELDGQSVKAHFFLGQCQLEMESYDEAIANLQRAYSLAKEQRLNFGDDIPSALRIAKKKRWNSIEERRIHQESELHSYLSRLIAAERERELEECQRNHEGDEDDSHVRAQQACIEAKHDKYMADMDELFSQVDEKRKK
B2: CHIP P228S, recombinant, C-terminal His tag (natural protein, human, UniProt Q9UNE7-1 1-303, looked up)
chain: MKGKEEKEGGARLGAGGGSPEKSPSAQELKEQGNRLFVGRKYPEAAACYGRAITRNPLVAVYYTNRALCYLKMQQHEQALADCRRALELDGQSVKAHFFLGQCQLEMESYDEAIANLQRAYSLAKEQRLNFGDDIPSALRIAKKKRWNSIEERRIHQESELHSYLSRLIAAERERELEECQRNHEGDEDDSHVRAQQACIEAKHDKYMADMDELFSQVDEKRKKRDISDYLCGKISFELMREPCITPSGITYDRKDIEEHLQRVGHFDPVTRSPLTQEQLIPNLAMKEVIDAFISENGWVEDY
notes: CHIP (STUB1), SCA48-associated U-box mutation P228S

Biological target: the molecule itself
Test: mass photometry; Refeyn OneMP; CHIP at 50 nM final in 20 mM HEPES pH 8.0, 200 mM NaCl; self-association of CHIP (dimer, tetramer, hexamer, octamer, high MW)

Protein	stoichiometry N	binding result
B1	2	
B2		binds
